Results reported in paper PMC10318062 (Nature Communications, 2023).
Read-outs that look alike come from different tables or passages of the source.

What was measured:
[1] = molecular target: SARS-CoV-2 hexaproline stabilized pre-fusion spike glycoprotein (S6P) (SARS-CoV-2, ancestral (Wuhan-Hu-1 …, UniProt P0DTC2, stabilised))
[2] = molecular target: T1, SARS-CoV-2 Receptor Binding Domain (RBD) (SARS-CoV-2, UniProt P0DTC2)
[3] = molecular target: T1, SARS-CoV-2 Receptor Binding Domain (RBD); assay: AlphaScreen or HTRF; conditions: one partner purified

B1: COVA2-34 (antibody, V domains shown)
VH: QVQLVESGGGVVQPGRSLRLSCAASGFTFSSYAMHWVRQAPGKGLEWVAVISYDGSNKYYADSVKGRFTISRDNSKNTLYLQMNSLRAEDTAVYYCARSASGSYYGAFDYWGQGTLVTVSS
VL: QTVVTQPASVSGSPGQSITISCTGTSSDVGGYNYVSWYQQHPGKAPKLMIYDVSNRPSGVSNRFSGSKSGNTASLTISGLQAEDEADYYCSSYTSSSTLGLYVFGTGTKVTVL
binding result [1]: binds

B2: COVA2-17 (antibody, V domains shown)
VH: QVQLVESGAEVKKPGSSVKVSCKASGGTFSSYGINWVRQAPGQGLEWMGGIIPIFGTANYAQKFQGRVTITTDESTSTAYMELSSLRSEDTAVYYCASFGDDSGDEGVRWGQGTLVTVSS
VL: EIVMTQSPATLSLSPGERATLSCRASQSVSSYLAWYQQKPGQAPRLLIYDASNRATGIPARFSGSGSGTDFTLTISSLEPEDFAVYYCQQRSNWPPYTFGQGTKVEIK
binding result [2]: binds
binding result [1]: binds

B3: COVA2-11 (antibody, V domains shown)
VH: EVQLVESGAEVKKPGSSVKVSCKASGGTLSSYAISWVRQAPGQGLEWMGGIIPIFGTANYAQKFQGRVTITTDESTSTAYMELSSLRSEDTAVYYCARGPRGCSSTSCYGSYFDYWGQGTLVTVSS
VL: not shown
binding result [2]: binds

B4: COVA3-08 (antibody, V domains shown)
VH: EVQLVESGPGLVKPSETLSLTCTVSGGSISSYYWSWIRQPPGKGLEWIGYIYYSGSTNYNPSLKSRVTISVDTSKNQFSLRLSSVTAADTAVYYCARGPAATYYYYMDVWGKGTMVTVSS
VL: not shown
binding result [1]: binds

B5: CB6 (sdFab) (Fab, V domains shown)
VH: EVQLVESGGGLVQPGGSLRLSCAASGFTVSSNYMSWVRQAPGKGLEWVSVIYSGGSTFYADSVKGRFTISRDNSMNTLFLQMNSLRAEDTAVYYCARVLPMYGDYLDYWGQGTLVTVSS
VL: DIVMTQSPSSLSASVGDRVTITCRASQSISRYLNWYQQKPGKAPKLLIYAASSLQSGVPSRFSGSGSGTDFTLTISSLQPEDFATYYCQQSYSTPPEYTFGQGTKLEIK
binding result [3]: binds

B6: S2E12 (antibody, V domains shown)
VH: not shown
VL: DIVLTQTPGTLSLSPGERATLSCRASQSVSSSYLAWYQQKPGQAPRLLIYGASSRATGIPDRFSGSGSGTDFTLTISRLEPEDFAVYYCQQYVGLTGWTFGQGTKVEIK
binding result [1]: binds

B7: COVA2-15 (antibody, V domains shown)
VH: QVQLLESGGGLVQPGGSLRLSCAASGFTFSSYAMSWVRQAPGKGLEWASAISGSGGSTYYADSVEGRFTISRDNSKNTLYLQMNSLRAEDTAVYYCAKDTGYCGDDCYIKLIRGGPDYWGQGTLVTVSS
VL: DIVMTQSPLSLPVTLGQPASISCRSSQSLVYSDGNTFLNWFQQRPGQSPRRLIYQVSNRDSGVPDRFSGSGSGTDFTLKISRVEAEDVGVYYCMQGTHWPRTFGQGTKLEIK
binding result [2]: binds
binding result [1]: binds

B8: COVA2-07 (antibody, V domains shown)
VH: EVQLVETGGGLIQPGGSLRLSCAASGLTVSSNYMNWVRQAPGKGLEWVSVIYSGGSTYYADSVKGRFTISRDNSKNTLYLQMNSLRAEDTAVYYCAREAYGMDVWGQGTMVTVSS
VL: not shown
binding result [2]: binds

B9: S304 (antibody, V domains shown)
VH: VQLVESGGGLVQPGGSLRLSCAASGFTFSSYDMHWVRQTTGKGLEWVSTIGTAGDTYYPDSVKGRFTISREDAKNSLYLQMNSLRAGDTAVYYCARGDSSGYYYYFDYWGQGTLLTVSS
VL: DIEMTQSPSSLSAAVGDRVTITCRASQSIGSYLNWYQQKPGKAPKLLIYAASSLQSGVPSRFSGSGSGTDFTLTISSLQPEDFAIYYCQQSYVSPTYTFGPGTKVDIK
binding result [1]: binds

B10: COVA2-41 (antibody, V domains shown)
VH: EVQLVESGGGLVKPGGSLRLSCSASGFTFSNYNMDWVRQAPGKGLEWVSSISSSSSYIYLADSVKGRFTISRDNAKNSLYLQMNSLRAEDTAVYYCARVQKDIVVVPVALADYYYYGMDVWGQGTTVTVSS
VL: DIVMTQSPATLSVSPGERATLSCRASQSVSSNLAWYQQKPGQAPRLLIYGASTRATGIPARFSGSGSGTEFTLTISSLQPEDFAVYYCQQCYNWPPWTFGQGTRVEFK
binding result [1]: binds

B11: COVA2-39 (antibody, V domains shown)
VH: QVQLVETGGGLIQPGGSLRLSCAASGFTVSSNYMSWVRQAPGKGLEWVSVIYTGGTTYYADSVKGRFTISRDNSKNTLYLQMNSLRAEDTAVYYCARAHVDTAMVESGAFDIWGQGTRVTVSS
VL: QSALTQPASVSGSPGQSITISCTGTSSDVGSYNLVSWYQQHPGKAPKLMIYEVTKRPSGVSNRFSGSKSGNTASLTISGLQAEDEADYYCCSYAGSSTWVFGGGTKLTVL
binding result [1]: binds

B12: CV07-270 (antibody, V domains shown)
VH: QVQLVESGGGLVKPGGSLRLSCAASGFTFSDYYMTWIRQAPGKGLEWVSYISSSGSTIYYADSVKGRFTISRDNAKNSLYLQMNSLRAEDTAVYYCARARGSSGWYRIGTRWGNWFDPWGQGTLVTVSS
VL: QSALTQPASVSGSPGQSITISCTGTSSDVGGYNYVSWYQQHPGKAPKLMIYEVSNRPSGVSNRFSGSKSGNTASLTISGLQAEDEADYYCSSYTSSSNVVFGGGTMLTVL
binding result [1]: binds

B13: P2B-2F6 (antibody, V domains shown)
VH: QVQLQESGPGLVKPSETLSLTCTVSGYSISSGYYWGWIRQPPGKGLEWIGSIYHSGSTYYNPSLKTRVTISVDTSKNQFSLKLSSVTAADTAVYYCARAVVGIVVVPAAGRRAFDIWGQGTMVTVSS
VL: QSALTQPPSASGSPGQSVTISCTGTSSDVGGYNYVSWYQQHPGKAPKLMIYEVSKRPSGVPDRFSGSKSGNTASLTVSGLQAEDEADYYCSSYAGSNNLVFGGGTKLTVL
binding result [1]: binds

B14: COVA1-16 (antibody, V domains shown)
VH: QVQLVQSGAEVKKPGASVKVSCKASGYTFTSYYMHWVRQAPGQGLEWMGIINSSGGSTSYAQKFQGRVTMTRDTSTSTVYMELSSLRSEDTAVYYCARPPRNYYDRSGYYQRAEYFQHWGQGTLVTVSS
VL: DIQLTQSPSSLSASVGDRVTITCQASQDISNYLNWYQQRPGKAPKLLIYDASNLETGVPSRFSGSGSGTDFTFTISSLQPEDIATYYCQQYDNPPLTFGGGTKLEIK
binding result [2]: binds
binding result [1]: binds

B15: LY-CoV555 (sdFab) (Fab, V domains shown)
VH: QVQLVQSGAEVKKPGSSVKVSCKASGGTFSNYAISWVRQAPGQGLEWMGRIIPILGIANYAQKFQGRVTITADKSTSTAYMELSSLRSEDTAVYYCARGYYEARHYYYYYAMDVWGQGTAVTVSS
VL: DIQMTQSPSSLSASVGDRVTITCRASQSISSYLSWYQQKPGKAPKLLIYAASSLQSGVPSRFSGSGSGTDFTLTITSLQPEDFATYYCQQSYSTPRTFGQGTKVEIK
binding result [3]: binds

B16: COVA2-05 (antibody, V domains shown)
VH: EVQLLESGAEVKKPGESLKISCKGSGYSFTSYWIGWVRQMPGKGLEWMGIIYPGDSDTRYSPSFQGQVTISADKSISTAYLQWSSLKASDTAMYYCARHMRPSIAARPGYQYYMDVWGKGTRVTVSS
VL: not shown
binding result [2]: binds

B17: S2M11 (antibody, V domains shown)
VH: EVQLVQSGAEVKKPGASVKVSCKASGYTFTGYYMHWVRQAPGQGLEWMGWINPISSGTSYAQTFQGRVTMTSDTSITTAYMELSRLRSDDTAVYYCARAAPFYDFWSGYSYFDYWGQGTLVTVSS
VL: not shown
binding result [1]: binds

B18: COVA2-02 (antibody, V domains shown)
VH: VQLQQESGPGLVKPSETLSLTCTVSGGSISSSSYYWGWIRQPPGKGLEWIGSIYYSGSTYYNPSLKSRVTISVDTSKNQFSLKLSSVTAADTAVYYCARRSTSRWGYYYMDVWGKGTRVTVSS
VL: DIVMTQSPSSLSASVGDRVTITCRASQSISNYLNWYQQKPGKAPKLLLYAASDLQSGVPSRFSGSGSGTDFTLTISSLQPEDFATYYCQQSYSTHMSTFGQGTKVDIK
binding result [2]: binds
binding result [1]: binds

B19: COVA2-16 (antibody, V domains shown)
VH: QVQLVQSGAEVKKPGATVKISCKVSGYTFTDYYMHWVQQAPGKGLEWMGLVDPEDGETIYAEKFQGRVTITADTSTDTAYMELSSLRSEDTAVYYCASSDSSGFVGSRGFDYWGQGTRVTVSS
VL: DIQLTQSPSSLSASVGDRVTITCRASQGIRNDLGWYQQKPGKAPKRLIYAASSLQSGVPSRFSGSGSGTEFTLTISSLQPEDFATYYCLQHNSYPPLFGQGTKVEIK
binding result [2]: binds
binding result [1]: binds

B20: COVA2-43 (antibody, V domains shown)
VH: QVQLVQPGAEVKKPGASVKVSCKASGYTFTSYGISWVRQAPGQGLEWMGWISAYNGDTNYAQKLQGRVTMTTDTSTSTAYMELRSLKSDDTAVYYCARFDYGYPYSSWSVLSIDYWGQGTLVTVSS
VL: DIVMTQSPSSLSASVGDRVTITCRASQGIRNDLGWYQQKPGKAPKRLIYAASSLQSGVPSRFSGSGSGTEFTLTISSLQPEDFATYYCLQHNSYPLTFGGGTKLEIK
binding result [1]: binds

B21: COVA2-20 (antibody, V domains shown)
VH: EVQLVESGGGLIQPGGSLRLSCAASGFTVSSNYMSWVRQAPGKGLEWVSVIYSGGSTYYADSVKGRFTISRDNSKNTLYLQMNSLRAEDTAVYYCASPLLLTPPDYYYYMDVWGKGTMVTVSS
VL: DVVMTQSPSSLSVSVGDRVTITCRASQGIRNDLGWYQQKPGKAPKRLIYAASSLQSGVPSRFSGSGSGTEFTLTISSLQPEDFATYYCLQHNSYLWTFGQGTKLEIK
binding result [2]: binds
binding result [1]: binds

B22: S2X35 (antibody, V domains shown)
VH: QVQLVQSGAEVKKPGASVKVSCKASGYTFTNYGISWVRQAPGQGLEWMGWISAYKGNTNYAQKLQGRVTMTTDTSTSTAYMELRSLRSDDTAVYYCARPDYQVLGYDFWIGYYGMDVWGQGTTVIVSS
VL: QSVLTQPPSVSGAPGQRVTISCTGSSSNIGAGYDVHWYQQLPGTAPKLLIYGNTNRPSGVPDRFSGSKSGTSASLAITGLQAEDEADYYCQSYDSSLSGSEVVFGGGTKLTVL
binding result [1]: binds

B23: COVA2-24 (antibody, V domains shown)
VH: EVQLVQSGAEVKKPGESLRISCKGSGYSFTSYWISWVRQMPGKGLEWMGRIDPSDSYTNYSPSFQGHVTISADKSISTAYLQWSSLKASDTAMYYCARPNPAGGYDSSGWVDAFDIWGQGTRVTVSS
VL: not shown
binding result [2]: binds
